The target of assay [1] is T1, CD5 peptide on HLA-A*02:01 (human).
T1 peptide: SICEGTVEV
Briefly: killing.

The target of assay [2] is CD5 51-59 epitope (…, SEQ ID NO: 1) in complex with HLA-A2 (human). The experiment in a line: cell-based or functional assay.
The target of assay [3] is T2, CD5 peptide on HLA-A*02:01 (human).
T2 peptide: YLKDGWHMV
The experiment in a line: killing.

Positions count from the first letter of the chain named.

B1: T-7378 (TCR, V domains shown)
Valpha: AQTVTQSQPEMSVQEAETVTLSCTYDTSESDYYLFWYKQPPSRQMILVIRQEAYKQQNATENRFSVNFQKAAKSFSLKISDSQLGDAAMYFCAYRGTSGTYKYIFGTGTMLKVLA
Vbeta: DTEVTQTPKHLVMGMTNKKSLKCEQHMGHRAMYWYKQKAKKPPELMFVYSYEKLSINESVPSRFSPECPNSSLLNLHLHALQPEDSALYLCASSRGLAGPYEQYFGPGTRLTVT
On to B1, for which the binding result in assay [1] was “recognises”.

B2: T-20109 TCR (TCR, V domains shown)
V domain 1: AQKITQTQPGMFVQEKEAVTLDCTYDTSDPSYGLFWYKQPSSGEMIFLIYQGSYDQQNATEGRYSLNFQKARKSANLVISASQLGDSAMYFCAMREEYSGAGSYQLTFGKGTKLSVIP
V domain 2: EPEVTQTPSHQVTQMGQEVILRCVPISNHLYFYWYRQILGQKVEFLVSFYNNEISEKSEIFDDQFSVERPDGSNFTLKIRSTKLEDSAMYFCASSQGPYNEQFFGPGTRLTVLE
As for B2, the “Kd value from peptide titration on peptide loaded T2 cells: fold increase for RNAi-CD5 TCR T cells from HLA-A2+ donors against TCR-transduced T cells from an HLA-A2- donor” value in assay [2] was found to be 2.24 fold.

B3: T-20109 (TCR, V domains shown)
Valpha: B2 V domain 1
Vbeta: EPEVTQTPSHQVTQMGQEVILRCVPISNHLYFYWYRQILGQKVEFLVSFYNNEISEKSEIFDDQFSVERPDGSNFTLKIRSTKLEDSAMYFCASSQGPYNEQFFGPGTRLTVL
Regarding B3, in assay [3], the binding result is “recognises”.

B4: T-20332 (TCR, V domains shown)
Valpha: B2 V domain 1
Vbeta: B3 Vbeta with Q96R
In the case of B4, the binding result in assay [3] is “recognises”.

B5: T-20332 TCR (TCR, V domains shown)
V domain 1: B2 V domain 1
V domain 2: B2 V domain 2 with Q96R
On to B5, for which the “Kd value from peptide titration on peptide loaded T2 cells: fold increase for RNAi-CD5 TCR T cells from HLA-A2+ donors against TCR-transduced T cells from an HLA-A2- donor” value in assay [2] worked out at 1.48 fold.

(Values after patent US20220363732A1 (MAX DELBR CK CENTRUM F R MOLEKULARE MEDIZIN IN DER …, published 2022).)
